Laboratory results reported in PMC5615036, “Crystal structure of an ASCH protein from Zymomonas mobilis and its ribonuclease activity specific for single-stranded RNA”.

Target: T1, ZmASCH wild-type (Zymomonas mobilis ZM4, UniProt Q5NP14 1-148)
T1 sequence: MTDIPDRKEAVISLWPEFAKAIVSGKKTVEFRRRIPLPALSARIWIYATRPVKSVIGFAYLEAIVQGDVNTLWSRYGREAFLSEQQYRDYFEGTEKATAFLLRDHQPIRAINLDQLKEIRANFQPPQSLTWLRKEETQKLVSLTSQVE
Assay: EMSA; 10 mM Mg2+; bound, not degraded; EMSA: 20 mM Tris-HCl pH 7.5, 10 mM Mg acetate, 300 mM KCl, 100 ng/uL BSA, 100 ng/uL heparin, 30 min at 310 K; nuclease assay: 20 mM Tris-HCl pH 8.0, 100 mM KCl, 100 ng/uL BSA, with or without 10 mM divalent metal, 310 K
Settings: protein: recombinant; tags: N-terminal His6; label: 5'-32P; single strand

B1: ssDNA(30mer) (ssDNA)
DNA: ATCAGCTCGTCACAACATTACTTCATCAAC
B1: binds.
